The values that follow come from publication PMC4200421, “A distinct tethering step is vital for vacuole membrane fusion” (eLife, 2014).

The target of this experiment is T1, Vam3p (vacuolar Qa-SNARE), on 3Q-SNARE proteoliposomes (S. cerevisiae, UniProt Q12241 1-283).
T1 construct: Vam3p, vacuolar Qa-SNARE of Saccharomyces cerevisiae; Bait of the co-immunoprecipitation (anti-Vam3p antibody); In every experiment Vam3p stood on the same proteoliposomes as the Qb-SNARE Vti1p and the Qc-SNARE Vam7p (3Q-RPLs); Constructs are in cited work; also called 3Q-RPLs; 3Q-SNAREs
T1 sequence (looked up): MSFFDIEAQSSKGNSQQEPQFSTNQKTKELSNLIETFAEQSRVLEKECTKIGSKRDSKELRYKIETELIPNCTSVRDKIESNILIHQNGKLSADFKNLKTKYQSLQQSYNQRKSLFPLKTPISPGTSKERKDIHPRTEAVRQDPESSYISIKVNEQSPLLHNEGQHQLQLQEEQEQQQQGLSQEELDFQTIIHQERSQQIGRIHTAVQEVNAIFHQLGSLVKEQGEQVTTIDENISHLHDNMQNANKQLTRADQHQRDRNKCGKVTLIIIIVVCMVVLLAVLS
Put plainly: co-IP; 1R-RPLs, or soluble Nyv1p at 100 nM, with 3Q-RPLs (Vam3p, Vti1p, Vam7p); 40 µl reaction 40 min at 27°C with HOPS (100 nM) or its buffer; diluted 10-fold in RIPA buffer with affinity-purified anti-Vam3p antibody (50 µg/ml) and 10 µM GST-Nyv1p; protein A magnetic beads, 2 hr room temperature; immunoblot with anti-Nyv1p. As to conditions: both partners purified. For orientation: In western blotting, separated proteins are transferred to a membrane and probed.

B1: Nyv1p (vacuolar R-SNARE), membrane-anchored, on R-SNARE proteoliposomes (natural protein, S. cerevisiae, UniProt Q12255 1-253, looked up)
chain: MKRFNVSYVEVIKNGETISSCFQPFQKNENYGTITSANEQITPVIFHNLIMDMVLPKVVPIKGNKVTKMSMNLIDGFDCFYSTDDHDPKTVYVCFTLVDMPKILPIRILSGLQEYESNATNELLSSHVGQILDSFHEELVEYRNQTLNSSGNGQSSNGNGQNTISDIGDATEDQIKDVIQIMNDNIDKFLERQERVSLLVDKTSQLNSSSNKFRRKAVNIKEIMWWQKVKNITLLTFTIILFVSAAFMFFYLW
notes: Nyv1p, vacuolar R-SNARE of Saccharomyces cerevisiae, membrane-anchored form; Schwartz and Merz, 2009; Zucchi and Zick, 2011 for the SNARE constructs; Exchanged into octylglucoside buffer before reconstitution; also called wild-type Nyv1p; 1R; source: pure recombinant protein, purified as described (cited work), reconstituted into proteoliposomes by detergent dialysis
For B1, the binding result was “binds”.

B2: Soluble Nyv1p (sR), Nyv1(Δtm), Nyv1p(1-231) (domain or fragment, S. cerevisiae, UniProt Q12255 1-231, looked up)
chain: MKRFNVSYVEVIKNGETISSCFQPFQKNENYGTITSANEQITPVIFHNLIMDMVLPKVVPIKGNKVTKMSMNLIDGFDCFYSTDDHDPKTVYVCFTLVDMPKILPIRILSGLQEYESNATNELLSSHVGQILDSFHEELVEYRNQTLNSSGNGQSSNGNGQNTISDIGDATEDQIKDVIQIMNDNIDKFLERQERVSLLVDKTSQLNSSSNKFRRKAVNIKEIMWWQKVKN
notes: Nyv1p of Saccharomyces cerevisiae without its transmembrane anchor (Δtm); the methods name only Nyv1(Δtm); also called sNyv1p; recombinant soluble domain of Nyv1p; source: purified as GST-TEVsite-Nyv1(Δtm) as described (Thorngren et al., 2004), cleaved with TEV protease prior to use; not shown: GST, N-terminal, cleaved
Turning to B2, the binding result is reported as “binds”.
